Results: a protein production outcome set (Wang et al. 2014)

Test: label from the status in PepcDB records

Which protein production does the source give for “MGCVFTNFRLRRSQTPKAKTPMIFEKQDYQQECIYNIITLLDGFDFKRHDALNLKDCLNQFHAACEIPVKNVSGKLNVDVLMETGTGKTFTYLNLIFALHKAYGQNKFIIFVPRKAILESVKQNIRLTKDYFYLEFKRHLKTYTYEGVKSPSNIINHYIKNQDELSVLLLTNSAIDKEGNILNKNSENLFNTKSIFENIADLKPISIIDEPHLLKGEAFGKYFGKIGALYFRFGATFAKEKEHALSNVAFCLDSISAFRNYLVKQIRIHSVMQDAQSPFLLNADSKSAKIAFYKAGILKQITLSKGEDLGKINASFNGVSLVKTAKDKAYLSNGATLEKASYKLAQDEISALLEKAIDLHFEKEAFLFDQNIKALSLFFIPKIEDFRQIDNKGTPFIKTEFERLYKLKRASILARENLSPSYKEYLKRDFDESGNLRVHQGYFSGDSVALNKGKKESKKEDIEANDIKMILSEKEKLLSFQTPLRFIFSVWALQEGWDNPNIFTLIKLANSTSETSRHQQVGRGLRIAINQEGKRVTHGFLKGNDNAFYKINYLDMLVSGEEVGFIEGLQKEIEASSFIGGGNALDREDLAKLGLNEREINKLFVELENSNALEFDETNNAYKIIAPICETMQNNEERIKDFLSDEEYHAVLSAFKMAENPTNKRDQIINANQPQEKVKIRQNLAKEFKELWQTINAQSQLSYQNIQKTKLIESIAKAFNESHVSAEVIKFESKRYDPQTNRIITEQSSTLKIRDYANALQKEINALLLDFAKDERLPLKFTLELYNALNKEHFTNSPKKAFKLLKGIIKDKLHENLLSCVSYGFCQNAFSNTAFDKTDPLYCEDGSPKNEIEKHKIGKYKSAQTPSPNYLYETIIYDSKIEEEVSEEGVQTLEGKSIEVFAKLPKFKIPTPYKNYEPDFAYLLKDEKGAKIFFVCETKGYEKESDIPPDEKRKIEYAKKFFETLSQNLKNAKKEIRVVFATRINKQDLFNTLKNALKETP” here?
The protein production was “failed”.

With “MKGKLGLFAAMLVLAGCATASEQLRVYTEQYPPYNMTTNGQPFAHSESEITGLCTDVLKAVLENAKVDYSIKLRDLSYGMNRAQRHEDHGIYCVSKTDEREPFFEWVGPLSSIKWTLFAKPGSSIKLDDLEDARDYRIGGYKGDVMTGYLEDKGFDVSAITNNGLNAKRLEQDQIDLWVADGLAGPYLAADASDVTGLEAVLVFRETPMYLAINKDSDPDLIKALNTAYQAMQESGEIDTISRSYGL” as the sequence, how does the protein production read?
The protein production was “failed”.

For “MLYIFLLPIIGLALAFIINKIFPRAQFRGYDVLPFFFIAACSLITLHINRPSFLPYGFLLYFILVIVVSLSDAIRNKNISLGKTIRKLWDYLAACTCFWYLGLLIMMFL”, which protein production is on record?
The protein production was “failed”.

With “MDKHKKNNQKEKRVKRNLKTLLLGSPREITIPGSRFPNGTQNLVPVVDIQKGVLITEDGRYIKVLEIVPTNFYLKSRIEQQNIIYYFSCYLKIAPQSLQILVCTQRADIDAYCDQMEKYYNREKNENCKAMILEDAQLVNYLASYEAVTRRFYLIYEYKGEATEFTEISKELADQAETAYQYLDYCGLEVLRHDNYDEFLLRTVYTAYHKQSARNINFSALMEQVGPVFNTPEITEDQLEEEDSEGITTIQDVLAPTEADLEHSKYILIDGVYHAYLYITGYSYPTERGLAWLSPLIELGDGISLSFFLEKKRKEQILSKVVKTTMINRSRLRDIEDIRADYEELDDAIYSGMYIKDRLNRDGEDFFYMHTLIEVTALDETTLNKRIKQVQNLCVSMDMTARRADWCHEQCFRSMLPIAKLDMDIAKRTQRNVLTSGAAGAFPFSSFELCDNKGVLMGINLHNNSAVIVDNFNSDIYSNGNLAIFGMSGAGKTYTLLLLAMRLRMCGVQVFIIAPEKGFEYRCACEAIGGQFLRLSPGSEDCINLMEIRRSTLDIDSNLANNIQRNDSVLLSKVQDLHTYIRLRYPQITPEEAYQLNIAILECYESFGITKDNRSLLNPDGSFKAMPDFTHLYSCLLKYPSLKNVALAVKEIIDFGMGGQTNVDLFSSFIVLDTSGAKKKDISSSTFVATSFIRDELSRSRTRKKAVLGDELWVIAGEEGNEQAADFIIEMVKLIRGYGAIFVSATQNTLDYFALRDGKFGDALLNNSRLKLLLQMEEAEAIKLQEKLGLSDEEVMQVVRCGRGQGLLCAGKNRIGIEIRSSQTEYELITTNRTDLEKREARTDTAEL” as the sequence, how does the protein production read?
Its protein production is “failed”.

With “MRVEENYHAFFTEASGFLNERIFKDYLRRLAYGIDASCYRYIPKIVAWVKNEEEVQKLCVLAKKHGVSLTFRAAGSSLSGQAICDGVLVMVTHFFKDAQILDNAQSIQLSCGVIGSNANALLKPYHKKIGPDPSTINTAMIGGIVANNASGMCCGVEQNSYKTLKSLRVILADGTLLDTANQESVESFKNAHKDLIEGVLNLRKEILEDKELHALIKKKYEIKNTTGYSLNALIDFEDPIEIISHLFIGSEGTLGFISSVELECVKDYAYKTCALLFYENLERCAKAAQILAALKAKQPEMISSAELMDYACLKSVKGLEGMPSVVLEIKEPNACLLIQSESDDPLILENSMQTILNALSAIPVVLDSQISSDPSIYQSWWKIRKGIFPIAASKRKSQSSVIIEDICFSQEDFVEGAKAIEGLLKKHGFKDNGIIFGHALSGNLHFVVTPILENEAERKAFENLVSEMFLMVSKSSGSIKAEHGTGRMVAPFVEMEWGEKAYKIHKQIKELFDPNGILNPDVIITNDKEIHTKNLKSIYPIEEHLDMCMECGFCERICPSKDLSLTPRQRIVIHREVEHLKERVSHGHHEDQVLLDELLKESEYLAHATCAVCHMCSTLCPLEIDTGKIALNYYQKNPKGEKIASKILNHMQTTTSMARFSLKSARLVQNLIGSHNLVSLTKGIKKFIKPFPKAFYYMPKNNAYPLENKTLKSEEKVIYFSTCINRSFAPSNKMADKRCIQEVFESLCQKAKVSVMYPNGLNALCCGKAFINYTDLTKQNNEKNHAIFLQLSDKGKIPIVLDHSACSTHFFKQMKAYKDLKVYDLSVYIEEVLSPKLKFNPINEDIGLYTMCALKLENKEELLFNLAKKCTLGEIVIHKETGCCGFAGNKGFFTPELNESALNGFQAFYQSYDLKRGFSTSSTCEIGLSEKTRFSWQHIAYLVDACTL” as the sequence, how does the protein production read?
The protein production was “failed”.

Which protein production does the source give for “MKTDVRWATFNIRYDNPQDSLNNWQYRKDRVCQFIKDHELDIVGMQEVLHNQFQDLRAGLPEYDGIGVGRDDGKTAGEYAPLFYRKDKYEVLDSNTFWLAENPDSVGMMGWDAVCVRIATWAKFKDKATGKIFMAVNTHFDHVGEEARRQSALLIIRKIKEIVGERPAVVTGDFNVTDASDAYETITTNEFVMKDAYKTAARVTGVDYTFHDFARIPAEDCEKIDFIFVTPQVLVKSCEIPAEVPEALLSDHNPQLADLELEHHHHHH” here?
The protein production was “not failed”.

With “MEGLEAYDYHLPPEQIAQEGVEPRDMARLMVVYREGPFRVAHKRVRDLPEFLRPGDVLVFNESKVIPARLLARKPTGGKVEILLVRERSPGLWEALLGPARKAPPGTRLLLLSPKDLAPVPGLQAEVVAVEEDGVRLLRFQGDLVAHLEEVGEVPLPPYIKAKIPMERYQTVYARRPGSVAAPTAGLHFTPELLERLREMGVELRFLTLHVGPGTFRPVKGDPEKHEMHAEPYAIPEEVAEAVNRAKAEGRRVVAVGTTVVRALESAYREGVGVVAGEGETRLFIRPPYTFKVVDALFTNFHLPRSTLLMLVAAFLGRERTLEAYRLAVAEGYRFYSLGDAMLIL” as the sequence, how does the protein production read?
Its protein production is “not failed”.

Which protein production does the source give for “MKVKIGLKCSDCEDINYSTTKNAKTNTEKLELKKFCPRENKHTLHKEIKLKS” here?
The protein production was “failed”.

For “MDNRKRLAYAIIQFLHGQLRHGGLSCDAQESLEVAIQCLETAFGVTLEDSDLALPQTLPEIFEAATSSKQEMPQDPRAPDRTPPSEEDSAEAERLKTEGNEQMKLENFEAAVHLYGKAIELNPANAVYFCNRAAAYSKLGNYVGAVQDCERAIGIDPGYSKAYGRMGLALSSLNKHAEAVAYYKKALELDPDNDTYKSNLKIAELKLREAPSPTGGVGSLDIAGLLNNPHFITMASSLMNSPQLQQLMSGMISGGHNPLGTPGSSPQQSDLASLIQAGQQFAQQMQQQNPEFVEQIRSQVVRSRTPSASHEEQQE”, which protein production is on record?
The protein production was “failed”.

Which protein production does the source give for “MTKQQKGFVTGQPTGALNLSDILDSEELGEYHLMSAAIITGNTVDFSGLGAGPDDPFEIASITKIFTGELLRLQIERGEITESTAVGDVLGERVADSLIRDITVEELANHTSGLPRLGNVGLRPFMATFFDKNPYKDLSADRVISISTTSKLNSRGEFHYSNLGFALLGQVLARNAGLTFDQLLDRDLLAPLNLNNTKLMTPESLAQDAPQGFSTPGKQVEAWEMDGFLPAAGLRSTARDMAVFCQYLFTKGPAPFTWQSLESAPEIVWHNGESFGYSSVLFFNTATTTAIFVAADVATSVFPIGHELLMANSTRQESKLEHHHHHH” here?
Its protein production is “failed”.

Which protein production does the source give for “EFVINPNGKSEVCILHEYMQRVLKVRPVYNFFECENPSEPFGASVTIDGVTYGSGTASSKKLAKNKAARATLEILIPDFVKQTSE” here?
The protein production was “not failed”.
